Laboratory results as given in patent US20250144141A1 (CDR LIFE, published 2025).

Assays:
[1] = molecular target: T1, HLA-A*02:01/MAGE-A4 complex (human, UniProt P04439 25-299 at identity 0.94); P61769 21-119); test: SPR (Biacore T200), HLA-A*02:01/MAGE-A4 as ligand; sample kept in human serum at 37 C for 0, 7 and 24 h and injected after 1:100 dilution; signal relative to the start sample
T1 construct: Coated on ELISA plates and on a streptavidin SPR chip; a biotin tag is not described; also called HLA-A2/MAGE-A4 complex; pMHC-MAGE-A4

[2] = molecular target: T1, HLA-A*02:01/MAGE-A4 complex; test: not stated in the sentence (SPR is described in Example 7)
[3] = molecular target: CD3 heterodimer (Acro Biosystems) (UniProt P07766 23-126); test: not stated in the sentence (SPR on a CD3 heterodimer chip is described in Example 7)
[4] = molecular target: T1, HLA-A*02:01/MAGE-A4 complex; test: SPR
[5] = molecular target: T1, HLA-A*02:01/MAGE-A4 complex; test: direct ELISA, plate coated with HLA-A*02:01/MAGE-A4 complex, serial dilution of the Fab

CD3 heterodimer (Acro Biosystems), sequence (P07766 23-126, one chain of several): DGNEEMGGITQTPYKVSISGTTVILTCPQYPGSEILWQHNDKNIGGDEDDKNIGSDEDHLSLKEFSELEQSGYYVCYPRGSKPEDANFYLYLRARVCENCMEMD

B1: M1403 (bispecific antibody)
heavy: EVQLVESGGGLVQPGGSLRLSCAASGFTFSTYAMNWVRQAPGKGLEWVGRIRSKYNNYATYYADSVKGRFTISRDDSKNTLYLQMNSLRAEDTAVYYCVRHGNFGDSYVSWFAYWGQGTLVTVSSASTKGPSVFPLAPSSKSTSGGTAALGCLVKDYFPEPVTVSWNSGALTSGVHTFPAVLQSSGLYSLSSVVTVPSSSLGTQTYICNVNHKPSNTKVDKRVEPKSCGGGGSSYELTQPPSVSVSPGQTASITCTADTLSRSYASWYQQKPGQSPVLVIYRDTSRPSGIPERFSGSNSGNTATLTISGTQAMDEADYYCATRPSSGSNFQAFGGGTKLTVLGGGGGGSGGGGSGGGGSGGGGSEVQLLESGGGSVQPGGSLRLSCTVSGFSLSNYAMSWVRQAPGKGLEYIGIVSSGGTTYYASWAKGRFTISRDNSKNTVYLQMNSLRAEDTASYYCAKDLYYGPTTYSAFNLWGQGTSVTVSS
light: QAVVTQEPSLTVSPGGTVTLTCGSSTGAVTTSNYANWVQQKPGKSPRGLIGGTNKRAPGVPARFSGSLLGGKAALTISGAQPEDEADYYCALWYSNHWVFGGGTKLTVLGQPKAAPSVTLFPPSSEELQANKATLVCLISDFYPGAVTVAWKADSSPVKAGVETTTPSKQSNNKYAASSYLSLTPEQWKSHRSYSCQVTHEGSTVEKTVAPTECSGGGGSSYELTQPPSVSVSPGQTASITCTADTLSRSYASWYQQKPGQSPVLVIYRDTSRPSGIPERFSGSNSGNTATLTISGTQAMDEADYYCATRPSSGSNFQAFGGGTKLTVLGGGGGGSGGGGSGGGGSGGGGSEVQLLESGGGSVQPGGSLRLSCTVSGFSLSNYAMSWVRQAPGKGLEYIGIVSSGGTTYYASWAKGRFTISRDNSKNTVYLQMNSLRAEDTASYYCAKDLYYGPTTYSAFNLWGQGTSVTVSS
notes: Fab(scFv)2 dual pMHC-targeting T cell engager, no Fc; also called dual engager M1403
B1: binds [1].

B2: M1048 (bispecific antibody)
chain 1: EVQLVESGGGLVQPGGSLRLSCAASGFTFSTYAMNWVRQAPGKGLEWVGRIRSKYNNYATYYADSVKGRFTISRDDSKNTLYLQMNSLRAEDTAVYYCVRHGNFGDSYVSWFAYWGQGTLVTVSSASTKGPSVFPLAPSSKSTSGGTAALGCLVKDYFPEPVTVSWNSGALTSGVHTFPAVLQSSGLYSLSSVVTVPSSSLGTQTYICNVNHKPSNTKVDKRVEPKSCGGGGSSYELTQPPSVSVSPGQTASITCTADTLSRSYASWYQQKPGQSPVLVIYRDTSRPSGIPERFSGSNSGNTATLTISGTQAMDEADYYCATRPSSGSNFQLFGGGTKLTVLGGGGGGSGGGGSGGGGSGGGGSESQVLESGGGSVQPGGSLRLSCTVSGFSLSNYAMSWVRQAPGKGLEYIGIVSSGGTTYYASWAKGRFTISKDTSKNTVYLQMNSLRAEDTASYYCAKDLYYGPTTYSAFNLWGQGTSVTVSS
chain 2: QAVVTQEPSLTVSPGGTVTLTCGSSTGAVTTSNYANWVQQKPGKSPRGLIGGTNKRAPGVPARFSGSLLGGKAALTISGAQPEDEADYYCALWYSNHWVFGGGTKLTVLGQPKAAPSVTLFPPSSEELQANKATLVCLISDFYPGAVTVAWKADSSPVKAGVETTTPSKQSNNKYAASSYLSLTPEQWKSHRSYSCQVTHEGSTVEKTVAPTECSGGGGSSYELTQPPSVSVSPGQTASITCTADTLSRSYASWYQQKPGQSPVLVIYRDTSRPSGIPERFSGSNSGNTATLTISGTQAMDEADYYCATRPSSGSNFQLFGGGTKLTVLGGGGGGSGGGGSGGGGSGGGGSESQVLESGGGSVQPGGSLRLSCTVSGFSLSNYAMSWVRQAPGKGLEYIGIVSSGGTTYYASWAKGRFTISKDTSKNTVYLQMNSLRAEDTASYYCAKDLYYGPTTYSAFNLWGQGTSVTVSS
A Kd [2] of 250 pM and a Kd [3] of 10000 pM were found for B2 in this work.

B3: M1067 (bispecific antibody)
chain 1: SYELTQPPSVSVSPGQTASITCTADTLSRSYASWYQQKPGQSPVLVIYRDTSRPSGIPERFSGSNSGNTATLTISGTQAMDEADYYCATRPSSGSNFQLFGGGTKLTVLGGGGGGSGGGGSGGGGSGGGGSEVQLLESGGGSVQPGGSLRLSCTVSGFSLSNYAMSWVRQAPGKGLEYIGIVSSGGTTYYASWAKGRFTISKDTSKNTVYLQMNSLRAEDTASYYCAKDLYYGPTTYSAFNLWGQGTSVTVSS
chain 2: EVQLVESGGGLVQPGGSLRLSCAASGFTFSTYAMNWVRQAPGKGLEWVGRIRSKYNNYATYYADSVKGRFTISRDDSKNTLYLQMNSLRAEDTAVYYCVRHGNFGDSYVSWFAYWGQGTLVTVSSASTKGPSVFPLAPSSKSTSGGTAALGCLVKDYFPEPVTVSWNSGALTSGVHTFPAVLQSSGLYSLSSVVTVPSSSLGTQTYICNVNHKPSNTKVDKRVEPKSC
chain 3: QAVVTQEPSLTVSPGGTVTLTCGSSTGAVTTSNYANWVQQKPGKSPRGLIGGTNKRAPGVPARFSGSLLGGKAALTISGAQPEDEADYYCALWYSNHWVFGGGTKLTVLGQPKAAPSVTLFPPSSEELQANKATLVCLISDFYPGAVTVAWKADSSPVKAGVETTTPSKQSNNKYAASSYLSLTPEQWKSHRSYSCQVTHEGSTVEKTVAPTECS
A Kd [4] of 120 pM was found for B3 in this work.

B4: M0702 (Fab, V domains shown)
VH: QEQLEESGGGLVTPGTPLTLTCTASGFSLSSYAMIWVRQAPGKGLEWIGTINDGGTAFYANWVKGRFTISRTSTTVDLKMTSPTTEDTATYFCARAYGSNGDVYWGYVNLWGQGTLVTVSS
VL: ELVMTQTPASVSEPVGGTVTIKCQASQSIGSNLAWYQQKPGQPPKLLIYAAANLASGVSSRFKGSRSGTEYTLTISGVQAADAATYYCQQGYSSSNVANVFGGGTELEILR
With B4 the “EC50 (read off the curve)” value [5] was roughly 600 pM.
